Experimental data reported in paper doi:10.1101/2022.12.19.520972 (bioRxiv, 2022).

B8: PEX14 NTD (1-104) (domain or fragment)
chain: MASSEQAEQPSQPSSTPGSENVLPREPLIATAVKFLQNSRVRQSPLATRRAFLKKKGLTDEEIDMAFQQSGTAADEPSSLGPATQVVPVQPPHLISQPYSPAGS
B12: PEX13 SH3-CTR (261-403) (domain or fragment)
chain: VTDSINWASGEDDHVVARAEYDFAAVSEEEISFRAGDMLNLALKEQQPKVRGWLLASLDGQTTGLIPANYVKILGKRKGRKTVESSKVSKQQQSFTNPTLTKGATVADSLDEQEAAFESVFVETNKVPVAPDSIGKDGEKQDL

Columns and labels:
PEX13 SH3 (261-346) [1] = target: T1, PEX13 SH3 (261-346) (human, UniProt Q92968 261-346); assay: NMR titration
T1 sequence: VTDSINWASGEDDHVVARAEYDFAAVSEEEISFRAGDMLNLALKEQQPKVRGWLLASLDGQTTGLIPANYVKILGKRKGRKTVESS

PEX13 SH3-CTR (261-403) [2] = target: B12; assay: NMR titration
PEX13 SH3 (261-346) [3] = target: T1, PEX13 SH3 (261-346); assay: ITC
PEX14 NTD (1-104) = target: B8; assay: ITC
PEX13 SH3-CTR (261-403) [4] = target: B12; assay: ITC

B1: PEX13 PxxP peptide (49-61) (peptide)
peptide: TRVPPPILPRPSQ
binding result (PEX13 SH3 (261-346) [1]): binds | binding result (PEX13 SH3-CTR (261-403) [2]): binds

B2: PEX13 FxxxF (350-403) (domain or fragment)
chain: KQQQSFTNPTLTKGATVADSLDEQEAAFESVFVETNKVPVAPDSIGKDGEKQDL
Kd (PEX13 SH3 (261-346) [3]): 27 µM | Kd (PEX14 NTD (1-104)): 2.8 µM | stoichiometry N (PEX14 NTD (1-104)): 1

B3: PEX5 W4 (peptide)
peptide: TATDRWYDEYHPEED
Kd (PEX14 NTD (1-104)): 3.14 µM

B4: PEX5 W1 (peptide)
peptide: ALSENWAQEFLAAGD
binding result (PEX14 NTD (1-104)): binds

B5: PEX5 W2 (peptide)
peptide: YNETDWSQEFISEVT
binding result (PEX14 NTD (1-104)): binds

B6: PEX5 W3 (peptide)
peptide: VSPARWAEEYLEQSE
binding result (PEX14 NTD (1-104)): binds

B7: PEX5 W5 (peptide)
peptide: AQAEQWAAEFIQQQG
binding result (PEX14 NTD (1-104)): binds

B8
Kd (PEX13 SH3-CTR (261-403) [4]): 5.4 µM

B9: PEX5 W6 (peptide)
peptide: GTSDAWVDQFTRPVN
binding result (PEX14 NTD (1-104)): binds

B10: PEX5 W7 (peptide)
peptide: AEAHPWLSDYDDLTS
binding result (PEX14 NTD (1-104)): binds

B11: PEX13 C-terminal peptide FxxxF to PEX5 W4 (domain or fragment)
chain: QQQSFTNPTLTKGATVADSLDEQEAAWYDEYVETNKVPVAPDSIGKDGEKQDL
Kd (PEX13 SH3 (261-346) [3]): ~6 µM | stoichiometry N (PEX13 SH3 (261-346) [3]): 1

B12
stoichiometry N (PEX14 NTD (1-104)): 1
